Assay results taken from the supplement of paper PMC9112550, “Optimization of the antimicrobial peptide Bac7 by deep mutational scanning” (BMC Biology, 2022).

test system: Escherichia coli TOP10; assay: shrunken log2 fold change of peptide-encoding DNA abundance (4.5 h post-induction vs induction); higher = less antimicrobial activity (less host growth inhibition); conditions: time post-induction: 4.5 h; library: site-saturation at positions 5, 18, 19, 20
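Further: peptides expressed intracellularly from a pBAD plasmid library in pooled LB shake-flask culture, induced with 0.3% L-arabinose, DNA abundance read by NGS, three biological replicates, DESeq2 with apeglm shrinkage.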

Sequence	shrunken log2 fold change
RRIRFRPPRLPRPRPRPSCHPRP	-0.495
RRIRFRPPRLPRPRPRPSCMPRP	-0.831
RRIRFRPPRLPRPRPRPSCSPRP	-0.498
RRIRFRPPRLPRPRPRPSDWPRP	0.0908
RRIRFRPPRLPRPRPRPSEHPRP	-0.323
RRIRFRPPRLPRPRPRPSGEPRP	-0.135
RRIRFRPPRLPRPRPRPSHLPRP	-0.737
RRIRFRPPRLPRPRPRPSIMPRP	-0.65
RRIRFRPPRLPRPRPRPSKCPRP	-0.26
RRIRFRPPRLPRPRPRPSKEPRP	1.3
RRIRFRPPRLPRPRPRPSPCPRP	-0.508
RRIRFRPPRLPRPRPRPSPIPRP	-0.13
RRIRFRPPRLPRPRPRPSSMPRP	-0.965
RRIRFRPPRLPRPRPRPSSYPRP	-0.676
RRIRFRPPRLPRPRPRPSTAPRP	-0.0915
RRIRFRPPRLPRPRPRPSTHPRP	-0.569
RRIRFRPPRLPRPRPRPSVRPRP	-0.302
RRIRFRPPRLPRPRPRPSWIPRP	-0.177
RRIRFRPPRLPRPRPRPSYYPRP	-1.07
RRIRFRPPRLPRPRPRPTAEPRP	0.593
RRIRFRPPRLPRPRPRPTCEPRP	0.0933
RRIRFRPPRLPRPRPRPTCFPRP	-0.157
RRIRFRPPRLPRPRPRPTEYPRP	-0.423
RRIRFRPPRLPRPRPRPTFNPRP	-0.279
RRIRFRPPRLPRPRPRPTGYPRP	0.0801

Sequence	shrunken log2 fold change
RRIRFRPPRLPRPRPRPTHRPRP	-0.0781
RRIRFRPPRLPRPRPRPTHTPRP	0.186
RRIRFRPPRLPRPRPRPTIAPRP	-0.27
RRIRFRPPRLPRPRPRPTIHPRP	0.865
RRIRFRPPRLPRPRPRPTKGPRP	-0.0144
RRIRFRPPRLPRPRPRPTKPPRP	-0.00249
RRIRFRPPRLPRPRPRPTKVPRP	-0.157
RRIRFRPPRLPRPRPRPTLGPRP	0.175
RRIRFRPPRLPRPRPRPTLVPRP	-0.141
RRIRFRPPRLPRPRPRPTNQPRP	-0.259
RRIRFRPPRLPRPRPRPTQKPRP	0.94
RRIRFRPPRLPRPRPRPTRLPRP	0.08
RRIRFRPPRLPRPRPRPTVGPRP	-0.142
RRIRFRPPRLPRPRPRPTWGPRP	0.132
RRIRFRPPRLPRPRPRPTYDPRP	-0.604
RRIRFRPPRLPRPRPRPTYGPRP	-0.252
RRIRFRPPRLPRPRPRPTYSPRP	-0.209
RRIRFRPPRLPRPRPRPTYTPRP	-0.719
RRIRFRPPRLPRPRPRPVCCPRP	-0.0027
RRIRFRPPRLPRPRPRPVCHPRP	-0.705
RRIRFRPPRLPRPRPRPVFDPRP	-0.258
RRIRFRPPRLPRPRPRPVGSPRP	-0.0263
RRIRFRPPRLPRPRPRPVHPPRP	0.037
RRIRFRPPRLPRPRPRPVHWPRP	-0.105
RRIRFRPPRLPRPRPRPVIDPRP	-0.225

Sequence	shrunken log2 fold change
RRIRFRPPRLPRPRPRPVKAPRP	0.0979
RRIRFRPPRLPRPRPRPVMCPRP	-0.263
RRIRFRPPRLPRPRPRPVMGPRP	0.368
RRIRFRPPRLPRPRPRPVMHPRP	-0.461
RRIRFRPPRLPRPRPRPVMIPRP	0.122
RRIRFRPPRLPRPRPRPVMLPRP	-0.412
RRIRFRPPRLPRPRPRPVNKPRP	-0.492
RRIRFRPPRLPRPRPRPVNSPRP	-0.154
RRIRFRPPRLPRPRPRPVPSPRP	-0.162
RRIRFRPPRLPRPRPRPVQCPRP	0.0456
RRIRFRPPRLPRPRPRPVRPPRP	1.18
RRIRFRPPRLPRPRPRPVSEPRP	0.114
RRIRFRPPRLPRPRPRPVTFPRP	-0.213
RRIRFRPPRLPRPRPRPVTGPRP	0.0131
RRIRFRPPRLPRPRPRPVTKPRP	0.19
RRIRFRPPRLPRPRPRPVTLPRP	0.347
RRIRFRPPRLPRPRPRPVTQPRP	-0.244
RRIRFRPPRLPRPRPRPVTWPRP	-0.271
RRIRFRPPRLPRPRPRPVVAPRP	0.0597
RRIRFRPPRLPRPRPRPVVMPRP	0.297
RRIRFRPPRLPRPRPRPVVTPRP	-0.756
RRIRFRPPRLPRPRPRPVWDPRP	0.0852
RRIRFRPPRLPRPRPRPVYNPRP	-1.27
RRIRFRPPRLPRPRPRPWCEPRP	-0.429
RRIRFRPPRLPRPRPRPWECPRP	-0.0123

Sequence	shrunken log2 fold change
RRIRFRPPRLPRPRPRPWFNPRP	-0.897
RRIRFRPPRLPRPRPRPWGFPRP	0.0091
RRIRFRPPRLPRPRPRPWGVPRP	-0.517
RRIRFRPPRLPRPRPRPWHIPRP	-0.213
RRIRFRPPRLPRPRPRPWLYPRP	-1.2
RRIRFRPPRLPRPRPRPWPDPRP	0.0228
RRIRFRPPRLPRPRPRPWRRPRP	0.0103
RRIRFRPPRLPRPRPRPWSHPRP	-0.843
RRIRFRPPRLPRPRPRPWSNPRP	-0.0867
RRIRFRPPRLPRPRPRPWSSPRP	0.0276
RRIRFRPPRLPRPRPRPWTCPRP	-0.126
RRIRFRPPRLPRPRPRPWTEPRP	-0.119
RRIRFRPPRLPRPRPRPWVPPRP	0.0548
RRIRFRPPRLPRPRPRPWYGPRP	-0.138
RRIRFRPPRLPRPRPRPYADPRP	-0.0222
RRIRFRPPRLPRPRPRPYAGPRP	-0.208
RRIRFRPPRLPRPRPRPYCQPRP	-0.131
RRIRFRPPRLPRPRPRPYDHPRP	-0.0263
RRIRFRPPRLPRPRPRPYDVPRP	-0.185
RRIRFRPPRLPRPRPRPYEIPRP	-0.241
RRIRFRPPRLPRPRPRPYEQPRP	0.00332
RRIRFRPPRLPRPRPRPYHCPRP	0.0331
RRIRFRPPRLPRPRPRPYHKPRP	-0.6
RRIRFRPPRLPRPRPRPYHMPRP	-0.128
RRIRFRPPRLPRPRPRPYIVPRP	-0.97

Sequence	shrunken log2 fold change
RRIRFRPPRLPRPRPRPYIYPRP	-0.0532
RRIRFRPPRLPRPRPRPYKFPRP	-0.228
RRIRFRPPRLPRPRPRPYNFPRP	-0.458
RRIRFRPPRLPRPRPRPYPCPRP	-0.0436
RRIRFRPPRLPRPRPRPYPHPRP	-1.04
RRIRFRPPRLPRPRPRPYPWPRP	-0.9
RRIRFRPPRLPRPRPRPYRDPRP	-0.0081
RRIRFRPPRLPRPRPRPYRNPRP	-0.00237
RRIRFRPPRLPRPRPRPYRPPRP	-1.76
RRIRFRPPRLPRPRPRPYRQPRP	-0.477
RRIRFRPPRLPRPRPRPYSAPRP	-1.11
RRIRFRPPRLPRPRPRPYSMPRP	-0.417
RRIRFRPPRLPRPRPRPYVTPRP	-0.148
RRIRFRPPRLPRPRPRPYVWPRP	0.109
RRIRFRPPRLPRPRPRPYYNPRP	-0.855
RRIRGRPPRLPRPRPRPAAWPRP	0.936
RRIRGRPPRLPRPRPRPADEPRP	0.239
RRIRGRPPRLPRPRPRPADRPRP	1.07
RRIRGRPPRLPRPRPRPADYPRP	0.025
RRIRGRPPRLPRPRPRPAEHPRP	0.352
RRIRGRPPRLPRPRPRPAELPRP	0.472
RRIRGRPPRLPRPRPRPAEQPRP	1.25
RRIRGRPPRLPRPRPRPAFEPRP	0.414
RRIRGRPPRLPRPRPRPAFTPRP	0.436
RRIRGRPPRLPRPRPRPAFWPRP	0.71

Sequence	shrunken log2 fold change
RRIRGRPPRLPRPRPRPAHEPRP	0.0535
RRIRGRPPRLPRPRPRPAIEPRP	0.942
RRIRGRPPRLPRPRPRPAIGPRP	0.591
RRIRGRPPRLPRPRPRPAIMPRP	1
RRIRGRPPRLPRPRPRPAMIPRP	0.2
RRIRGRPPRLPRPRPRPANDPRP	0.902
RRIRGRPPRLPRPRPRPANHPRP	0.0248
RRIRGRPPRLPRPRPRPAPFPRP	0.722
RRIRGRPPRLPRPRPRPAQCPRP	0.471
RRIRGRPPRLPRPRPRPAQTPRP	0.221
RRIRGRPPRLPRPRPRPAQYPRP	0.233
RRIRGRPPRLPRPRPRPARAPRP	1.03
RRIRGRPPRLPRPRPRPAREPRP	0.38
RRIRGRPPRLPRPRPRPARFPRP	0.683
RRIRGRPPRLPRPRPRPARMPRP	0.613
RRIRGRPPRLPRPRPRPARVPRP	0.614
RRIRGRPPRLPRPRPRPARYPRP	0.339
RRIRGRPPRLPRPRPRPASTPRP	0.653
RRIRGRPPRLPRPRPRPATKPRP	0.649
RRIRGRPPRLPRPRPRPAVPPRP	0.686
RRIRGRPPRLPRPRPRPAYRPRP	0.181
RRIRGRPPRLPRPRPRPCAFPRP	2.03
RRIRGRPPRLPRPRPRPCAMPRP	-0.102
RRIRGRPPRLPRPRPRPCARPRP	0.38
RRIRGRPPRLPRPRPRPCAVPRP	0.66
